According to patent publication US20030103985A1:

Biological target: CD44v6 on antigen-positive FaDu cells (human head and neck cancer cell line) (human) (UniProt P16070)
Experiment: flow cytometry (FACS) on FaDu cells, FITC-labeled anti-human IgG detection, on ice

B1: BIWA 4 (antibody, human IgG1, kappa, V domains shown)
VH: EVQLVESGGGLVKPGGSLRLSCAASGFTFSSYDMSWVRQAPGKGLEWVSTISSGGSYTYYLDSIKGRFTISRDNAKNSLYLQMNSLRAEDTAVYYCARQGLDYWGRGTLVTVSS
VL: EIVLTQSPATLSLSPGERATLSCSASSSINYIYWYQQKPGQAPRLLIYLTSNLASGVPARFSGSGSGTDFTLTISSLEPEDFAVYYCLQWSSNPLTFGGGTKVEIKR
  Kd: 1 nM
